# Source: publication PMC10883919
# Molecular target: T1, TcrX D54A D54A (Mycobacterium tuberculosis H37Rv) (UniProt O69730)
# T1 sequence: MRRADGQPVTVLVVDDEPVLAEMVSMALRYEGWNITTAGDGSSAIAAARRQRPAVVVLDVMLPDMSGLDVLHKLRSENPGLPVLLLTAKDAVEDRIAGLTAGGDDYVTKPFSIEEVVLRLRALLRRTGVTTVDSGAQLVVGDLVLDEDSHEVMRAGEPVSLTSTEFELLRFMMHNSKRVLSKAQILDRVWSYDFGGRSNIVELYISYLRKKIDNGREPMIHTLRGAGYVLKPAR
# Assay: EMSA
sequence,measurement,value
TACGACACGCTCAACCGAGATGCGGTGCTGCGTCACAGCGTCAAGTATCCGCACACGGCTGAGCAGACGCCATGCGGATCCTATGTGCGCGCTATGAAACCCGATTTG (double strand) [PtcrXY],binding,binds
